From article PMC10263302

Biological target: Complex IV (cytochrome c oxidase complex) of T. gondii (Toxoplasma gondii | Toxoplasma gondii (endogenous in the parasites))
Test: native gel or EMSA

cFLAG-TgApiCox13^H49Q (natural protein)
reduction of the abundance of the complex against the cWT-containing complex (no ATc): 75%

cFLAG-TgApiCox13^H85Q (natural protein)
reduction of the abundance of the complex against the cWT-containing complex (no ATc): 45%
